Measurements as given in the nanobody polyreactivity screen of Harvey et al. (2022).

Assay: yeast display, Sf9 membrane polyspecificity reagent, FACS + sequencing; frameworks hold sequencing errors
How it was run: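 Polyreactivity labels are assigned by the sorting gate from which each nanobody was recovered. The gates were low and high (top ~1%), set on anti-HA fluorescence for expression and streptavidin fluorescence for reagent binding. Before sorting, galactose-induced (36–48 hours) yeast display cells were stained for 1 hour at 4 °C with 10% biotinylated, detergent-solubilized Sf9 membrane reagent.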

Sequence	polyreactivity (PSR sort gate)
QVHLVESGGPLVQAGGSLRLSCAASGRIFQINAMVWYRQAPGKERELVAGITGSGGSTDYADSVKGRFTISRDKSKNTVYLQMNSLKPEDTAVYYCAADTYTDGYDYWGQGTQVTVSS	low polyreactivity
QVHLVESGGVLVQAGGSLRLSCAAYGSTFSWNAMGWYRQSPWKESELVAPITTRGGSTYYADSVKGRFTISRDNAQNTVYLEMNSLKPEDTAVYDCAASYGYRGGWGPGVDYWGQCTQVTVSS	low polyreactivity
QVHLVESGRGLFQAGGSLRLSCAASGRIFPGYAMGWSRQAPGKESELVAGITWRTARTYYAYSVKGRFTISRDIAKNTVYLQMNSLKPEDTAVYYCAAKYARYGRDVIFDYWGQGTEVTVSS	high polyreactivity
QVHLVESGRGLLQAGGSLRLSCAPSGRTFGVYSMGWYSQAPGKERELVAAISWSGDRTYYADSVKGRFTISRDYAKNTVYLQMNSLKPEDPALDYAEYHGAKYDYWGQGTQVTVSS	high polyreactivity
QVHLVESRGGLIQAGGSLRLSCAASGSLYVYNALGWYRQAPGKERELVAGITFIGGSTYYADSVKGRFTISRDNAKNTVYLQMNSLKPEDTAVCYSNADVAPGIFYGYDSWGQGTQVTVSS	low polyreactivity
QVHLVESRGGLVQAGGSLRLSCAASGRPFNPYAMGWYRQAPGKEREFVYADSVKGRFTISRDNAKNTVYLQMNSLKPEDTAVYYCAADVYPDTLHPYNYDYWGQGTQVTVSS	low polyreactivity
QVHLVESVGGLVQAGGSLRLSCAASGIIFNDYAMGWYRQAPGKERELVATISWSGGSTYADSVKGRFTISRDNAKNTVYLQMNSLNPEDTAVYYCNADLGSSYDWGQGTQGTVSS	low polyreactivity
QVHLVESVGGLVQAGGSLSLSCAASGLIFDGYAMGWYRQAPGKERDLVAAITWRGGRTYADSVKGRFTISRDNAKNTVYLQMNSLQPEVTAVYYCAVRRWGTSFVEDDYWGQGTQVTVSS	low polyreactivity
QVHLVESWAGLVQAGGSLRLSGAASGTNVMGWYRQAPGKERELDAAISGSGGSTYYADSVKGRFTISRDNAKNTVYLQMNSLKPEDTAVYYCAADSIQYTARPYDYWGQGTQVTVSS	low polyreactivity
QVHLVETGGGLVQAGGSLRLSCAASGSIFVSNAKGWYRQAPGKERELVAAISQSGGSTYYADSVKGRFTISRDYAKNTVYLQMNSLKPEDTAVYYCATPIRSGFRIYDYWGQGTQVTVSS	low polyreactivity
QVHLVETGGGLVQEGGSLRLSCAASGSIFYYNAMGWYRQATGKETELVAAITSSGGSTYADSVKGRFTISRDNAKNTVYLQMNSLKPEDTAVYYCATVAHGLWSGSGYIYAYDYWGQGTQVTVSS	low polyreactivity
QVHLVQSGGGLVQAGGSLRLSCAASGSIYVAYEMGWYRQAPGKERELVAAINFDGTSTYYADSVKGRFTISRDNAKNTVYLQMNSLKPEDTAVYYCNKRVSPTYKGQYDYWGQGTQVTVSS	low polyreactivity
QVHLVVSGGGLVQEGGSLSLRWAASGSTFEYYGMGWYTQAPGKERELVAAITVSGGSTYYADSVKGRFTISRDNEKNTVYLQIHSLKPEDSAVCYCAARPILYWYFRFDYWGQGTQVTVSS	low polyreactivity
QVHRVESGGGLVQAGGSLRLSCAASGIIFARYAMGWYRPAPGKERELVAAITRRAVSTYYADSVKGRFTITRDNAKNSVYLQLISLKPEDTAVYYCAADRASYFTYAYGYWGQGTQVTVSS	high polyreactivity
QVHVVESGGGLVQAGGSLRLSCAASGFTFGNNAIGWYRQAPGKERELVAGISRTGGRTYYADSVKGRFTISRDNAMNTVFLPMNSLKPEDTAVFYCAKAFRGHYWGQGTQVNVSS	high polyreactivity
QVHVVESGGGLVQAGGSLRLSCAASGSSFYHYAMGWYRQAPGKERELVAAISGSGGSTYYADSVKGRFTISRDNAKNTVYLQMNSLKPEDTAVYYCAADTSRYHYTRYFFDSDYWGQGTQVTVSS	low polyreactivity
QVKHVESGGGLVQAGGSLRLTCAASGRTFDRYARGWCRQAPGKDRQLVASISWTGGSPYYADSVKGRFTISRDNAKNTVYLQMNSLKPEVTAVYYCAVRFDYWGQGTQVTVSS	low polyreactivity
QVKLEESGGGLVQAGGSLRLTCAASGSTFTYYAMGWYRQAPGKERELVAAITFRGDSTYYADSVKGRFTFSRDNAKNTVYLQMNSLKPEDTAVYYWGQGTQVTVSS	low polyreactivity
QVKLHESGGGLVQAGDSQRLSCAASGNIFRFTDMGWSRQAPRKERELVAAINAGSTTYYADSVKGRFTISRDNAKNTVYLQKNSLKPEDTAVYYWAVYYLGSGTFGYWGQGAQVTVSS	high polyreactivity
QVKLLESGGGLVQAGGSLRLTCAASGSTFPPYAMGWYRQAPGTESELVAAISYRDTGTYYADSVKGRFTISRDNAKYTVYLQMNSLKPEDTAVYYCATLGYFSASRTDYDYWGQGTQVTVSS	low polyreactivity
QVKLQESGGGLVQAGGSLRLSCAASGNISVTGFMGWYRQAPGKERELVASIGIGGTTYYADSVKGRFSISRDNANNTLYLQMNSLKPEDTAVYYCAARYLYYAYSYWGQGTQVTVSS	low polyreactivity
QVKLVESGAGLVQAGGSLRLSCAASALSFYYYAMGWYRQAPGKERELVASITGGDSTNYADSVKGRFTISRDNAKNTVYLQMNSLKPEETAVYYCADEFYVSSYGYRTYDYYYWGQGTQVTVSS	low polyreactivity

Sequence	polyreactivity (PSR sort gate)
QVKLVESGAGVVQAGGSLRLSCAACGRIFLKYAMGWYRQAPGKERELVAAITSGGGRTSYADSVKGRFTISRDNAKNTVYLQMNSLKPEDTAVYYCNAPAYWRYILRGSAYDYWGQGTQVTVSS	high polyreactivity
QVKLVESGGGFLQAGGRLRLSCAASGIIFYYYAMGRYRQAPGKERELVAAISSGGSTYYSDSVKGRFTISRDNAMNTVYLQMNSLKPEDTAVYYCAADPLYTIDIEYSTYGDYDYWGQGTQVTVSS	low polyreactivity
QVKLVESGGGLVQAGGSLRISSAASGSTFYYYAMGWYRQAPGKESEFVASISSRGTSKYYADSVKGRFTISRDNAKNTVYLQMNSLKPEDTAVYYCAARGWCPTRAYDYWGQGTQVTVSS	high polyreactivity
QVKLVESGGGLVQAGGSLRLSCAASGFIFAHYAMGWYRQAPGKERELVAAIRGGDGSTDYADSVKGRFTISRDNAKNTVYLQMNSLIPEDTAVYYCAKRGKRSRGVGGNYWGQGTQVTVSS	low polyreactivity
QVKLVESGGGLVQAGGSLRLSCAASGFILGYYAMGWYRQAPGKERELVASISRRGGSTYYADSVKGRFTISRDNAKNTVYLQMNSLKPEDTAVYYCAASGYGRYPPYEYWGQGTQVTVSS	high polyreactivity
QVKLVESGGGLVQAGGSLRLSCAASGFTFNGYGMGWYRQAPGKERELVAAISRSSGGTYYADSVKGRFTISRDNAKNTVYLQMNSLKPVDTAVYYCAATGYRTATPSWRYYYWGQGSQVTVSS	high polyreactivity
QVKLVESGGGLVQAGGSLRLSCAASGFTFSRNTRGWYRQAPGKERELVAAIDSTGGSTYYADSEKGRFTISRDNAKNTVYLQMNCLNPEDTAVYYCATVLPDGRVRLRILWGKRVWYDYWGQGTHVTVSS	low polyreactivity
QVKLVESGGGLVQAGGSLRLSCAASGFTIQRYAMGWYRQAPGKERELVAAITSGGSTYYADSVKGRFTISRDNAKNTVYLQMNSLKPEDTAVYYCATRAVWSSWGRRYDSWGQGTQVTVSS	high polyreactivity
QVKLVESGGGLVQAGGSLRLSCAASGITFGYNAMGWDRQAPGKERELVAAITGGSTYYADSVKGRFTISRDNAKNTFYLQMNSLKPEDSAVYYCATDPRRFWVIYYYWGQGTQVTVSS	low polyreactivity
QVKLVESGGGLVQAGGSLRLSCAASGLIFGYNTMGWYRQAPGKERELVAAITRSGGSTYYADSVKGRFTISRDNAKNTVYLQMNSLKPEDTAVYYCAARHRSAYYHLDYWGQGTQVTVSS	high polyreactivity
QVKLVESGGGLVQAGGSLRLSCAASGRIFGYYDMGLYRQAPGKDRELVAAISWNGGSTSYADSVKGRFTISRDNAKNTVYLQMNSLKPEDTAVYYCAAETQYDGYVGSFYYWGQGTQVTVSS	low polyreactivity
QVKLVESGGGLVQAGGSLRLSCAASGRIFYYNAMGWYRQAPGKERELVSAIRVRGGSTYYADSVKGRFTISRDNAKNTVYLQMNSLNPEDTAVYYCNSSDYKISATNAVVRYYYWGQGTQVTVSS	high polyreactivity
QVKLVESGGGLVQAGGSLRLSCAASGRTFASNAMGWYRQAPGKERELVADISSSGGTTYYADSVKGRFTISRDNAKNTVYLQMNSLKPEDTAVYYCAAVSSQDDPVKAWDYEYWGQGTQVTVSS	low polyreactivity
QVKLVESGGGLVQAGGSLRLSCAASGRTFLRYTMGWYRQAPGKEREFVAAISYDTSSTNYADSVKGRFTISRDNAKNNLYLQMNSLKPEDTAVYYCATGPYYGYDEFDYWGQGTQVTVSS	low polyreactivity
QVKLVESGGGLVQAGGSLRLSCAASGRTFYRNTMGWYRQAPGKERELVAAITRSGGSTYYADSVKGRFTISRDNAKNTVYLQMNRLKPEDTAVYYCARPKIHGETRSYGYGYWGQGTQVTVSS	high polyreactivity
QVKLVESGGGLVQAGGSLRLSCAASGSIFRYYAMGWYRQAPGKERELVAAMTASGGRTHYADSVKGRFTISRDNAKNTVYLQMNSLKLEDTAVYYCAADLYYAWYWKQHYDYCGQGTQVTVSS	high polyreactivity
QVKLVESGGGLVQAGGSLRLSCAASGSIFTYYAMGWYRQAPGKERELVADIRWSGGSTYYADSVKGRFTISRDNAKNTVYLQMNSLKPEDTAVYYCNARYYSYWPIYNFDYWGQGTQVTVSS	low polyreactivity
QVKLVESGGGLVQAGGSLRLSCAASGSIFYYYAMGWYREAPGKERELVAAISYGGGSTYYADSVKGRFTISRDNAKNTVYLQMNSLKPEDTAVYYCAVQEVVGWYLYDYWGHGTQVTVSS	high polyreactivity
QVKLVESGGGLVQAGGSLRLSCAASGSIISGYAMGWYRQAPGKERELVAAISSSGGRTYYADSVKGRFTISRDNAKNTVYLQMYSLKPEDTAVYYCATVWSIVRGSYYNRYDYWGQGTQVTVSS	high polyreactivity
QVKLVESGGGLVQAGGSLRLSCAASGSTFSPYVKAWYRQAPGKERELVAAIRYRGGSTYYADSVKGRFTISRDNAKNTVYLQMNSLKPEDTAVYYCATKRSHYSGGYWGQGTQVTVSS	high polyreactivity
QVKLVESGGGLVQAGGSLRLSCAAYGFIISYYAMGWYRQQPGKEREFVAVISRGGNTYYADSVKGRFTISRDNAKNTVYLQMNSLKPVDTAVYYCAASVPPYYPRQRHDGYDYWVQGTQVTVSS	low polyreactivity
